Data: publication PMC3087007 (The Journal of Cell Biology, 2011)

Target: T1, GST-occludin 383–522 S408A (human, UniProt Q16625 383-522, S408A)
T1 sequence: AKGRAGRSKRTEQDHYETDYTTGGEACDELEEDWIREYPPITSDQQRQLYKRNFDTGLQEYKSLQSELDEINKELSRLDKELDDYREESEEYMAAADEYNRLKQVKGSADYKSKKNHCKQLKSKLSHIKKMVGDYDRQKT
Assay: pull-down

B1: VSV G epitope-tagged human ZO-1 U5-GuK domain construct (residues 591–754) (domain or fragment)
chain: PKTAGGDRADFWRFRGLRSSKRNLRKSREDLSAQPVQTKFPAYERVVLREAGFLRPVTIFGPIADVAREKLAREEPDIYQIAKSEPRDAGTDQRSSGIIRLHTIKQIIDQDKHALLDVTPNAVDRLNYAQWYPIVVFLNPDSKQGVKTMRMRLCPESRKSARKL
B1 was tested, and the “fold binding relative to the S408D mutant” value was 3.2 fold.
